Values of other authors, collected in article PMC3977038.

Target: FcεRIα (Homo sapiens) (UniProt P12319)
Sequence (P12319 26-257): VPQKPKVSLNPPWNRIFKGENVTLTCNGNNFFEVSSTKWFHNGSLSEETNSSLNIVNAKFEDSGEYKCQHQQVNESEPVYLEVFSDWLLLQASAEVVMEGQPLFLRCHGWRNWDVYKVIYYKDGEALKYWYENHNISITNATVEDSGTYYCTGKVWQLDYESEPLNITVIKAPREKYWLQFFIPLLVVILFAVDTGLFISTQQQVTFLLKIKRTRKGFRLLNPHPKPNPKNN

IgE-Fc Fc, sequence (P01854 105-426): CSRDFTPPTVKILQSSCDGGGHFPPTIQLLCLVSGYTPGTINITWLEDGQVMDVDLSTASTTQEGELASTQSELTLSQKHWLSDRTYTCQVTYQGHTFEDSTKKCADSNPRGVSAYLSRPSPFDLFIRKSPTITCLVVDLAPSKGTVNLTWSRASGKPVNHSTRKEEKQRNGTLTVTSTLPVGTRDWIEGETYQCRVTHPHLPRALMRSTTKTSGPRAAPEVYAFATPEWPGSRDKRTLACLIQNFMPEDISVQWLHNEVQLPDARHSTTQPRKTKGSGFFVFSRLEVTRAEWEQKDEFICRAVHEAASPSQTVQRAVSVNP

## IgE-Fc Fc (from UniProt P01854)
  Kd: 100 pM
